Source: publication PMC5039622, “Characterization of aspartyl aminopeptidase from Toxoplasma gondii” (Scientific Reports, 2016)

T1: rTgAAP (TgAAP, aspartyl aminopeptidase) (Toxoplasma gondii, UniProt A0A7J6KF82)
T1 construct: gene TGRH88_002740; full-length CDS 1521 bp, ~56 kDa (55897 Da predicted in ToxoDB), N-terminal GST tag kept (~80 kDa), E. coli BL21, pCold III; mainly dodecamer, also trimer and monomer on native PAGE
T1 sequence (A0A7J6KF82 1-508): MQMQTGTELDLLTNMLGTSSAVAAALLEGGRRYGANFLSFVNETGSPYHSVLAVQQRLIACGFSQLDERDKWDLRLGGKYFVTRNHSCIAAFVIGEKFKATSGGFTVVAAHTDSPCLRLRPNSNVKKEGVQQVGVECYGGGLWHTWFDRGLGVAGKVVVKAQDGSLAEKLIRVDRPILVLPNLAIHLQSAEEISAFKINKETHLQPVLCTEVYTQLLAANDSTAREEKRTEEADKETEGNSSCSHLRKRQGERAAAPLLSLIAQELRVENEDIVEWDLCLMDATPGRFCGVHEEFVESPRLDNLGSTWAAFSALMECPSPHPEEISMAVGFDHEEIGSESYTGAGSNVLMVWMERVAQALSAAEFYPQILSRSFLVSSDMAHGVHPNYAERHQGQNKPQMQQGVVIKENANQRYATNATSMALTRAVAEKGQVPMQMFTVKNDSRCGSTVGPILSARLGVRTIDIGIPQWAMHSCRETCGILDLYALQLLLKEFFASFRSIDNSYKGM

B1: rTgAAP (TgAAP, aspartyl aminopeptidase) (Toxoplasma gondii) (protein)
chain: T1 sequence (A0A7J6KF82 1-508)
notes: full-length CDS 1521 bp, ~56 kDa (55897 Da predicted in ToxoDB), N-terminal GST tag kept (~80 kDa), E. coli BL21, pCold III; mainly dodecamer, also trimer and monomer on native PAGE

Assays:
[1] = target: T1, rTgAAP (TgAAP, aspartyl aminopeptidase); test: inhibition of H-Glu-MCA hydrolysis; format: biochemical; details: 1 h pre-incubation at 37 °C; substrate H-Glu-MCA
[2] = substrate: Cc1cc(=O)oc2cc(NC(=O)[C@@H](N)CC(N)=O)ccc12; test: fluorogenic MCA release, initial rates; format: biochemical, Toxoplasma gondii; details: 37 °C, enzyme 0.3 μM, metal not stated for the kinetics
Description: (§1) fluorogenic MCA release, initial rates on rTgAAP (TgAAP, aspartyl aminopeptidase)

[3] = substrate: Cc1cc(=O)oc2cc(NC(=O)[C@@H](N)CO)ccc12; test: fluorogenic MCA release, initial rates; format: biochemical, Toxoplasma gondii; details: 37 °C, enzyme 0.3 μM, metal not stated for the kinetics
Description: as §1

[4] = substrate: Cc1cc(=O)oc2cc(NC(=O)[C@@H](N)Cc3c[nH]cn3)ccc12; test: fluorogenic MCA release, initial rates; format: biochemical, Toxoplasma gondii; details: 37 °C, enzyme 0.3 μM, metal not stated for the kinetics
Description: as §1

[5] = substrate: Cc1cc(=O)oc2cc(NC(=O)[C@@H](N)CC(=O)O)ccc12; test: fluorogenic MCA release, initial rates; format: biochemical, Toxoplasma gondii; details: 37 °C, enzyme 0.3 μM, metal not stated for the kinetics
Description: as §1

[6] = substrate: Cc1cc(=O)oc2cc(NC(=O)[C@@H](N)CCC(=O)O)ccc12; test: fluorogenic MCA release, initial rates; format: biochemical, Toxoplasma gondii; details: 37 °C, enzyme 0.3 μM, metal not stated for the kinetics
Description: as §1

[7] = substrate: Cc1cc(=O)oc2cc(NC(=O)[C@@H]3CCCN3)ccc12; test: fluorogenic MCA release, initial rates; format: biochemical, Toxoplasma gondii; details: 37 °C, enzyme 0.3 μM, metal not stated for the kinetics, printed kcat/Km 0.28 disagrees tenfold with printed kcat and Km
Description: as §1

Row | Molecule | % inhibition at 1 mM [1] | Km [2] | kcat [2] | kcat/Km [2] | Km [3] | kcat [3] | kcat/Km [3] | Km [4] | kcat [4] | kcat/Km [4] | Km [5] | kcat [5] | kcat/Km [5] | Km [6] | kcat [6] | kcat/Km [6] | Km [7]
1 | Cl.Oc1ccc(CCNc2c3ccccc3nc3ccccc23)cc1O [CID 23724194] | > 50% | – | – | – | – | – | – | – | – | – | – | – | – | – | – | – | –
2 | B1 | – | 24.32 ± 0.26 µM | 0.484 ± 0.0126 s⁻¹ | 19900 M⁻¹ s⁻¹ | 92.87 ± 3.38 µM | 0.123 ± 0.0086 s⁻¹ | 1330 M⁻¹ s⁻¹ | 88.70 ± 2.53 µM | 0.208 ± 0.0043 s⁻¹ | 2350 M⁻¹ s⁻¹ | 12.84 ± 0.21 µM | 1.1 ± 0.0648 s⁻¹ | 85700 M⁻¹ s⁻¹ | 7.35 ± 0.73 µM | 1.4 ± 0.306 s⁻¹ | 190000 M⁻¹ s⁻¹ | 98.55 ± 1.96 µM
